Data published in patent US20170306033A1 (Amgen, published 2017).

T1: human PAC1 receptor (human, UniProt P41586 21-468)
T1 sequence: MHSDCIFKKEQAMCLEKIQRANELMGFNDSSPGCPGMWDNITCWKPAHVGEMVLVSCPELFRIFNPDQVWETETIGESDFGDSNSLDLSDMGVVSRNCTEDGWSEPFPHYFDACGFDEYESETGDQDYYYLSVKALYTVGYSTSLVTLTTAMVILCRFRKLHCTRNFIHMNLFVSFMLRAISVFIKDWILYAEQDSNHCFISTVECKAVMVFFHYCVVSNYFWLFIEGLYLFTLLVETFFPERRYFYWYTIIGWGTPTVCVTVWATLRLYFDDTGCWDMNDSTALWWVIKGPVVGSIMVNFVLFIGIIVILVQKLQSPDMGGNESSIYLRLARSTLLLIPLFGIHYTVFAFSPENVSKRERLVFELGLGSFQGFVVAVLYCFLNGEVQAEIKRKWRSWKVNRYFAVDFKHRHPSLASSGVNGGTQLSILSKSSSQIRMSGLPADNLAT


Assays:
human CGRP receptor = human CGRP receptor (human, UniProt Q16602 23-461; O60894 27-148); experiment: cell-based or functional assay
Sequence of human CGRP receptor (Q16602 23-461 limits assumed, chain 1 of 2): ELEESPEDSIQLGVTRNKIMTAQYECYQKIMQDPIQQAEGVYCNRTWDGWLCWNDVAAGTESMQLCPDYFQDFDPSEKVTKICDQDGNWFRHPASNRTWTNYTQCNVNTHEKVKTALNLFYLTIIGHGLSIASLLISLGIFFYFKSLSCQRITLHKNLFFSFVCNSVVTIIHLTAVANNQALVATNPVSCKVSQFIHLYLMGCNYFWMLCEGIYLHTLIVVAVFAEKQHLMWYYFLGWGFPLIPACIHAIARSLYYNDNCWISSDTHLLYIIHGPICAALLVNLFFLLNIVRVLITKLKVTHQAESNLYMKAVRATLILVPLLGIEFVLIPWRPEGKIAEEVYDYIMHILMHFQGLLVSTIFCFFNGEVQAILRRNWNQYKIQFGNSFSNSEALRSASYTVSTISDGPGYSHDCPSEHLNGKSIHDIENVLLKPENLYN
Sequence of human CGRP receptor (O60894 27-148 limits assumed, chain 2 of 2): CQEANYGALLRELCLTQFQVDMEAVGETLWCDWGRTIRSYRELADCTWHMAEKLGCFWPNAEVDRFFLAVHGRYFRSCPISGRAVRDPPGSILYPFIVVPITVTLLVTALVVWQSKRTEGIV

human PAC1 receptor = target: T1, human PAC1 receptor; experiment: cell-based or functional assay

| Binder | % inhibition of human CGRPR (human CGRP receptor) | % inhibition of human PAC1 (human PAC1 receptor) |
| --- | --- | --- |
| iPS:327897 (bispecific antibody, human IgG1, kappa, lambda, N297G) light 1: not shown heavy 1: not shown light 2: QSVLTQPPSVSAAPGQKVTISCSGSSSNIGNNYVSWYQQLPGTAPKLLIYDNNKRPSGIPDRFSGSKSGTSATLGITGLQTGDEADYYCGTWDSRLSAVVFGGGTKLTVLGQPKANPTVTLFPPSSEELQANKATLVCLISDFYPGAVTVAWKADGSPVKAGVETTKPSKQSNNKYAAKSYLSLTPEQWKSHRSYSCQVTHEGSTVEKTVAPTECS heavy 2: QVQLVESGGGVVQPGRSLRLSCAASGFTFSSFGMHWVRQAPGKGLEWVAVISFDGSIKYSVDSVKGRFTISRDNSKNTLFLQMNSLRAEDTAVYYCARDRLNYYESSGYYHYKYYGMAVWGQGTTVTVSSASTKGPSVFPLAPSSKSTSGGTAALGCLVKDYFPEPVTVSWNSGALTSGVHTFPAVLQSSGLYSLESVVTVPSSSLGTQTYICNVNHKPSNTKVDKKVEPKSCDKTHTCPPCPAPELLGGPSVFLFPPKPKDTLMISRTPEVTCVVVDVSHEDPEVKFNWYVDGVEVHNAKTKPCEEQYGSTYRCVSVLTVLHQDWLNGKEYKCKVSNKALPAPIEKTISKAKGQPREPQVYTLPPSRKKMTKNQVSLTCLVKGFYPSDIAVEWESNGQPENNYKTTPPVLKSDGSFFLYSKLTVDKSRWQQGNVFSCSVMHEALHNHYTQKSLSLSPGK | 80% | 12% |
| iPS:327890 (bispecific antibody, human IgG1, kappa, lambda, N297G) light 1: not shown heavy 1: not shown light 2: QSVLTQPPSVSAAPGQKVTISCSGSSSNIGNNYVSWYQQLPGTAPKLLIYDNNKRPSGIPDRFSGSKSGTSATLAITGLQTGDEADYYCGTWDSRLSAVVFGKGTKLTVLGQPKANPTVTLFPPSSEELQANKATLVCLISDFYPGAVTVAWKADGSPVKAGVETTKPSKQSNNKYAAKSYLSLTPEQWKSHRSYSCQVTHEGSTVEKTVAPTECS heavy 2: QVQLVESGGGVVQPGRSLRLSCAASGFTFSSFGMHWVRQAPGKELEWVAVISFDGSIKYSVDSVKGRFTISRDNSKNTLFLQMNSLRAEDTAVYYCARDRLNYYDSSGYYHYKYYGMAVWGQGTTVTVSSASTKGPSVFPLAPSSKSTSGGTAALGCLVKDYFPEPVTVSWNSGALTSGVHTFPAVLQSSGLYSLESVVTVPSSSLGTQTYICNVNHKPSNTKVDKKVEPKSCDKTHTCPPCPAPELLGGPSVFLFPPKPKDTLMISRTPEVTCVVVDVSHEDPEVKFNWYVDGVEVHNAKTKPCEEQYGSTYRCVSVLTVLHQDWLNGKEYKCKVSNKALPAPIEKTISKAKGQPREPQVYTLPPSRKEMTKNQVSLTCLVKGFYPSDIAVEWESNGQPENNYKTTPPVLKSDGSFFLYSKLTVDKSRWQQGNVFSCSVMHEALHNHYTQKSLSLSPGK | 94% | 15% |
| iPS:327889 (bispecific antibody, human IgG1, kappa, lambda, N297G) light 1: not shown heavy 1: not shown light 2: QSVLTQPPSVSAAPGQKVTISCSGSSSNIGNNYVSWYQQLPGTAPKLLIYDNNKRPSGIPDRFSGSKSGTSATLAITGLQTGDEADYYCGTWDSRLSAVVFGGGTKLTVLGQPKANPTVTLFPPSSEELQANKATLVCLISDFYPGAVTVAWKADGSPVKAGVETTKPSKQSNNKYAAKSYLSLTPEQWKSHRSYSCQVTHEGSTVEKTVAPTECS heavy 2: QVQLVESGGGVVQPGRSLRLSCAASGFTFSSFGMHWVRQAPGKGLEWVAVISFDGSIKYSVDSVKGRFTISRDNSKNTLFLQMNSLRAEDTAVYYCARDRLNYYDSSGYYHYKYYGMAVWGQGTTVTVSSASTKGPSVFPLAPSSKSTSGGTAALGCLVKDYFPEPVTVSWNSGALTSGVHTFPAVLQSSGLYSLESVVTVPSSSLGTQTYICNVNHKPSNTKVDKKVEPKSCDKTHTCPPCPAPELLGGPSVFLFPPKPKDTLMISRTPEVTCVVVDVSHEDPEVKFNWYVDGVEVHNAKTKPCEEQYGSTYRCVSVLTVLHQDWLNGKEYKCKVSNKALPAPIEKTISKAKGQPREPQVYTLPPSRKEMTKNQVSLTCLVKGFYPSDIAVEWESNGQPENNYKTTPPVLKSDGSFFLYSKLTVDKSRWQQGNVFSCSVMHEALHNHYTQKSLSLSPGK | 83% | 9% |
| iPS:327888 (bispecific antibody, human IgG1, kappa, lambda, N297G) light 1: DIQMTQSPSSLSASVGDRITITCRASQSISRYLNWYQQKPGKAPKLLIYAASSLQSGIPSRFSGSGSGTDFTLTINSLQPEDFATYFCQQSYSPPFTFGQGTKVDIKRTVAAPSVFIFPPSDEQLKSGTASVVCLLNNFYPREAKVQWKVDNALQSGNSQESVTEQDSKDSTYSLESTLTLSKADYEKHKVYACEVTHQGLSSPVTKSFNRGEC heavy 1: not shown light 2: QSVLTQPPSVSAAPGQKVTISCSGSSSNIGNNYVSWYQQLPGTAPKLLIYDNNKRPSGIPDRFSGSKSGTSATLAITGLQTGDEADYYCGTWDSRLSAVVFGGGTKLTVLGQPKANPTVTLFPPSSEELQANKATLVCLISDFYPGAVTVAWKADGSPVKAGVETTKPSKQSNNKYAAKSYLSLTPEQWKSHRSYSCQVTHEGSTVEKTVAPTECS heavy 2: QVQLVESGGGVVQPGRSLRLSCAASGFTFSSFGMHWVRQAPGKGLEWVAVISFDGSIKYSVDSVKGRFTISRDNSKNTLFLQMNSLRAEDTAVYYCARDRLNYYDSSGYYHYKYYGMAVWGQGTTVTVSSASTKGPSVFPLAPSSKSTSGGTAALGCLVKDYFPEPVTVSWNSGALTSGVHTFPAVLQSSGLYSLESVVTVPSSSLGTQTYICNVNHKPSNTKVDKKVEPKSCDKTHTCPPCPAPELLGGPSVFLFPPKPKDTLMISRTPEVTCVVVDVSHEDPEVKFNWYVDGVEVHNAKTKPCEEQYGSTYRCVSVLTVLHQDWLNGKEYKCKVSNKALPAPIEKTISKAKGQPREPQVYTLPPSRKEMTKNQVSLTCLVKGFYPSDIAVEWESNGQPENNYKTTPPVLKSDGSFFLYSKLTVDKSRWQQGNVFSCSVMHEALHNHYTQKSLSLSPGK | 83% | 56% |
| iPS:328031 (bispecific antibody, human IgG1, kappa, N297G) light 1: DIQMTQSPSSLSASVGDRITITCRASQSISRYLNWYQQKPGKAPKLLIYAASSLQSGIPSRFSGSGSGTDFTLTINSLQPEDFATYFCQQSYSPPFTFGQGTKVDIKRTVAAPSVFIFPPSDEQLKSGTASVVCLLNNFYPREAKVQWKVDNALQSGNSQESVTEQDSKDSTYSLESTLTLSKADYEKHKVYACEVTHQGLSSPVTKSFNRGEC heavy 1: not shown light 2: EIVLTQSPGTLSLSPGERATLSCRASQSVSSGYLTWYQQKPGQAPRLLIYGASSRATGIPDRFSGSGSGTDFTLTISRLEPEDFAVYYCQQYGNSLSRFGQGTKLEIKRTVAAPSVFIFPPSDEQLKSGTASVVCLLNNFYPREAKVQWKVDNALQSGNSQESVTEQDSKDSTYSLKSTLTLSKADYEKHKVYACEVTHQGLSSPVTKSFNRGEC heavy 2: not shown | 75% | 27% |
| iPS:328033 (bispecific antibody, human IgG1, kappa, N297G) light 1: not shown heavy 1: not shown light 2: EIVLTQSPGTLSLSPGERATLSCRASQSVSSGYLTWYQQKPGQAPRLLIYGASSRATGIPDRFSGSGSGTDFTLTISRLEPEDFAVYYCQQYGNSLSRFGQGTKLEIKRTVAAPSVFIFPPSDEQLKSGTASVVCLLNNFYPREAKVQWKVDNALQSGNSQESVTEQDSKDSTYSLKSTLTLSKADYEKHKVYACEVTHQGLSSPVTKSFNRGEC heavy 2: not shown | 82% | 20% |
| iPS:328035 (bispecific antibody, human IgG1, kappa, N297G) light 1: DIQMTQSPSSLSASVGDRITITCRASQSISRYLNWYQQKPGKAPKLLIYAASSLQSGIPSRFSGSGSGTDFTLTINSLQPEDFATYFCQQSYSPPFTFGQGTKVDIKRTVAAPSVFIFPPSDEQLKSGTASVVCLLNNFYPREAKVQWKVDNALQSGNSQESVTEQDSKDSTYSLESTLTLSKADYEKHKVYACEVTHQGLSSPVTKSFNRGEC heavy 1: not shown light 2: EIVLTQSPGTLSLSPGERATLSCRASQSVSSGYLTWYQQKPGQAPRLLIYGASSRATGIPDRFSGSGSGTDFTLTISRLEPEDFAVYYCQQYGNSLSRFGQGTKLEIKRTVAAPSVFIFPPSDEQLKSGTASVVCLLNNFYPREAKVQWKVDNALQSGNSQESVTEQDSKDSTYSLKSTLTLSKADYEKHKVYACEVTHQGLSSPVTKSFNRGEC heavy 2: not shown | 73% | 10% |
| iPS:328034 (bispecific antibody, human IgG1, kappa, N297G) light 1: not shown heavy 1: not shown light 2: EIVLTQSPGTLSLSPGERATLSCRASQSVSSGYLTWYQQKPGQAPRLLIYGASSRATGIPDRFSGSGSGTDFTLTISRLEPEDFAVYYCQQYGNSLSRFGKGTKLEIKRTVAAPSVFIFPPSDEQLKSGTASVVCLLNNFYPREAKVQWKVDNALQSGNSQESVTEQDSKDSTYSLKSTLTLSKADYEKHKVYACEVTHQGLSSPVTKSFNRGEC heavy 2: not shown | 86% | 9% |
| iPS:326645 (bispecific antibody, human IgG2, kappa, lambda) light 1: not shown heavy 1: QVQLQESGPGLVKPSQTLSLTCTVSGGSISSGGYYWSWIRQHPGKGLEWIGYIYYSGNTYYNPSLKSRVTISGDTSKNQFSLKLRSVTAADTAVYYCTRGGAARGMDVWGQGTTVTVSSASTKGPSVFPLAPCSRSTSESTAALGCLVKDYFPEPVTVSWNSGALTSGVHTFPAVLQSSGLYSLKSVVTVPSSNFGTQTYTCNVDHKPSNTKVDKTVERKCCVECPPCPAPPVAGPSVFLFPPKPKDTLMISRTPEVTCVVVDVSHEDPEVQFNWYVDGVEVHNAKTKPREEQFNSTFRVVSVLTVVHQDWLNGKEYKCKVSNKGLPAPIEKTISKTKGQPREPQVYTLPPSREEMTKNQVSLTCLVDGFYPSDIAVEWESNGQPENNYDTTPPMLDSDGSFFLYSDLTVDKSRWQQGNVFSCSVMHEALHNHYTQKSLSLSPGK light 2: not shown heavy 2: not shown | 67% | 59% |
| iPS:326651 (bispecific antibody, human IgG2, kappa, lambda) light 1: not shown heavy 1: QVQLQESGPGLVKPSQTLSLTCTVSGGSISSGGYYWSWIRQHPGKGLEWIGYIYYSGNTYYNPSLKSRVTISGDTSKNQFSLKLRSVTAADTAVYYCTRGGAARGMDVWGQGTTVTVSSASTKGPSVFPLAPCSRSTSESTAALGCLVKDYFPEPVTVSWNSGALTSGVHTFPAVLQSSGLYSLKSVVTVPSSNFGTQTYTCNVDHKPSNTKVDKTVERKCCVECPPCPAPPVAGPSVFLFPPKPKDTLMISRTPEVTCVVVDVSHEDPEVQFNWYVDGVEVHNAKTKPREEQFNSTFRVVSVLTVVHQDWLNGKEYKCKVSNKGLPAPIEKTISKTKGQPREPQVYTLPPSREEMTKNQVSLTCLVDGFYPSDIAVEWESNGQPENNYDTTPPMLDSDGSFFLYSDLTVDKSRWQQGNVFSCSVMHEALHNHYTQKSLSLSPGK light 2: not shown heavy 2: not shown | 66% | 23% |
